Consider 2 substances from patent US20030229006A1, “Amphiphilic oligomers” (priority 1993, published 2003).

The conditions of data set [1]: pH 1.3.
Data set [2] has as its system Pancreatin. The following applies: pH 7.5.
The test system of data set [3] is Pepsin (Gastric). The conditions noted are these: pH 1.3.
Data set [4] has as its system Chymotrypsin. The following applies: pH 6.
For data set [5], the system named is pancreatomized dogs. Kind of data set: Blood glucose after oral microemulsion insulin formulation. The class given is in vivo. The following applies: 1.0 mg/kg orally, emulsion formulation (native Zinc insulin or Hex-insulin mixture). On the procedure:
(§1) FIG. 6 is a graph of insulin and blood glucose levels as a function of time, after dosing of canine subjects with a microemulsion insulin formulation representative of the present invention. The respective curves shown in the graph include native Zinc insulin; glucose ( ), hex-insulin; glucose (▪); native Zinc insulin; insulin (Δ); and hex-insulin; insulin (Δ).
(§2) Glucose data were normalized to the baseline glucose levels (0 minutes). Dogs were dosed orally with one of two emulsion formulations (native Zinc insulin or Hex-insulin mixture). The dose was adjusted to 1.0 mg/kg. Samples were collected at 30 minute intervals. The data were corrected for Hex-insulin reactivity in the BMI ELISA and Pharmacia RIA tests.

Data set [6] is described as follows: Closed loop assay, serum insulin by ELISA. The format is in vivo, Sprague-Dawley rats. The conditions noted are these: 10 and 30 milligrams of insulin per kilogram. On the procedure:
FIG. 3 is a graph of ELISA assay results for native insulin in the NRS pool of various Sprague-Dawley rats, showing insulin concentration as a function of time, prior to and after dosing with insulin, at respective doses of 10 milligrams of insulin per kilogram of body weight, and at 30 milligrams of insulin per kilogram of body weight. Two rats were dosed at 10 milligrams insulin per kilogram of body weight (Rats C and I) and two rats were dosed at 30 milligrams insulin per kilogram of body weight (Rats K and L).
FIG. 4 is a graph of ELISA assay results for insulin in the NRS pool of various Sprague-Dawley rats, showing insulin concentration as a function of time, prior to and after dosing with insulin, at respective doses of 10 milligrams of insulin per kilogram of body weight, and at 30 milligrams of insulin per kilogram of body weight, wherein the insulin is administered as a conjugate, insulin-hexyl-PEG7-OMe.

Data set [7] in a line: Serum insulin after oral microemulsion insulin formulation. The following applies: 1.0 mg/kg orally. The class given is in vivo, dogs. On the procedure: as §1, §2
Data set [8] concerns albino mice. The data set can be described thus: Blood glucose after oral glucose challenge in fasted mice (Example IV). The class given is in vivo. On the procedure:
Comparative studies using bovine insulin were conducted on polymer-insulin conjugates and on native insulin to determine their relative stability and activity in animal models. In the animal studies, the efficacy of the polymer-insulin in lowering the blood level was compared to that of native insulin. Female and male albino mice averaging 25 g in weight were fasted overnight and used in groups of five for each treatment conducted in several phases over a period of two days. […] Conjugate 1) Group 3, 100 μg/kg, orally); or Conjugate 1 (Group 4, 100 μg/kg, subcutaneously) at time 0. […] Animals were fasted overnight before treatment and for the duration of the study. All test materials were prepared in phosphate buffered saline, pH 7.4. […] At the scheduled sample time blood was collected from the tail vein and immediately analyzed for glucose content using a One Touch Digital Glucose Meter (Life Scan).

As to “Insulin (Na): native (bovine) insulin, sodium form, comparator in stability studies”, in data set [1], the “Stability, Acid” value was 153 h. In addition, the “Stability, Pancreatin 6 units/mL” value in data set [2] is 77 min. In addition, the “Stability, Pepsin (Gastric) 1.5 units/mL” value in data set [3] was found to be 9 min. Besides, the “Stability, Chymotrypsin” value in data set [4] came out at 13 min.

In the case of “native insulin: unconjugated insulin comparator: bovine insulin in Example IV, native Zinc insulin emulsion in Example XIX”, in data set [5], the “Glucose return to baseline by” value was in the range of 360 to 480 min and the “Time of maximal glucose depression” value lay within 9 to 180 min. For the same substance, the “Insulin concentration over the timecourse” value in data set [6] was “flat throughout the timecourse”. The “Time of peak insulin immunoreactivity in the serum after dosing” value in data set [7] (emulsion formulation (native Zinc insulin or Hex-insulin mixture)) is at most 30 min. For the same substance, the “Serum insulin return to baseline” value in data set [7] (emulsion formulation, in all cases) was in the range of 120 to 240 min. Also, in data set [8] (100 μg/kg subcutaneously), the “Duration of hypoglycemic effect” value was 3.5 h. Moreover, the Blood glucose levels result in data set [8] (100 μg/kg subcutaneously, 30 minute time point, control = Group 5, untreated) is listed as “approximately 30 % of control”. In data set [8] (1.5 mg/kg orally by gavage), the “Blood glucose levels lowered to a maximum of” value is reported as 60 % of control and the “Time of maximum response after treatment” value came out at 30 min. The “Glucose levels after four hours” value in data set [8] (Group 2, 1.5 mg/kg orally) is reported as “remained above control”.
